The values below come from patent US20050234221A1.

The target in this experiment is IL-17 receptor like polypeptide on human B-lymphoblast cell line GM3104A (human) (UniProt Q9NRM6). As to the kind of experiment: cell-based or functional assay.

Chain of recombinant human IL-17E-Fc fusion protein (chain): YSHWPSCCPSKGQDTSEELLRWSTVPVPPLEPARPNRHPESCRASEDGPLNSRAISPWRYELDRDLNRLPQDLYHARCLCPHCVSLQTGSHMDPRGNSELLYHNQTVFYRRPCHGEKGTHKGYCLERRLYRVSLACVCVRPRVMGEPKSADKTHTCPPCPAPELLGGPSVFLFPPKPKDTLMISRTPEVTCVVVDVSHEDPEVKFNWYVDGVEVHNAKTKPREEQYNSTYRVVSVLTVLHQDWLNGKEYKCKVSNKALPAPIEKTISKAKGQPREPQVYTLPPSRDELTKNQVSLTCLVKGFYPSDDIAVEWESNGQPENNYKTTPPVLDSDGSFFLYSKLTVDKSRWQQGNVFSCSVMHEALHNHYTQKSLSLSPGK

Take “recombinant human IL-17E-Fc fusion protein”: the IL-1α (pg/ml) released by GM3104A cells was 25 pg/mL, the IL-6 (pg/ml) released by GM3104A cells amounted to 362 pg/mL and the TNF-α (pg/ml) released by GM3104A cells turned out to be 460 pg/mL.
